Molecular target: protein G_1
Assay: SEC-MALS

Q: Which stoichiometry N does the source give for protein G_1 here?
A: 2

— article PMC10204179
